Data reported in patent publication EP2170953B1.

How the values were obtained:
[1] = molecular target: Aβ1-42 peptide, oligomer-enriched preparation; assay: ELISA mean of 3, Ab 1:128 of 0.5 µg/ml
[2] = molecular target: Aβ1-42 peptide, monomer-enriched preparation; assay: ELISA mean of 3, Ab 1:128 of 0.5 µg/ml
[3] = molecular target: Aβ1-42 peptide, oligomer-enriched preparation; assay: ELISA assay 1, Ab 1:4 of 0.5 µg/ml
[4] = molecular target: Aβ1-42 peptide, high molecular weight (HMW) proto-fibrillar (PF) oligomer enriched preparation (human); assay: ELISA, Ab 1 µg/ml; proto-fibrils against LMW monomers (given without sign)
Chain of Aβ1-42 peptide, high molecular weight (HMW) proto-fibrillar (PF) oligomer enriched preparation (human) (peptide, as listed by the source, form in doubt): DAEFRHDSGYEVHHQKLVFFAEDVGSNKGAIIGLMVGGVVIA

[5] = molecular target: Aβ1-42 peptide, high molecular weight (HMW) proto-fibrillar (PF) oligomer enriched preparation (human); assay: ELISA on coated fraction, Ab 0.0625 µg/ml
[6] = molecular target: Aβ1-42 peptide, low molecular weight (LMW) monomer preparation (human); assay: ELISA on coated fraction, Ab 0.0625 µg/ml
Chain of Aβ1-42 peptide, low molecular weight (LMW) monomer preparation (human) (peptide, as listed by the source, form in doubt): as above

[7] = molecular target: Aβ1-42 peptide, high molecular weight (HMW) proto-fibrillar (PF) oligomer enriched preparation (human); assay: ELISA on coated fraction, Ab 0.0078 µg/ml
[8] = molecular target: Aβ1-42 peptide, low molecular weight (LMW) monomer preparation (human); assay: ELISA on coated fraction, Ab 0.0078 µg/ml
[9] = molecular target: Aβ1-42 peptide, oligomer-enriched preparation; assay: ELISA assay 2, Ab 1:4 of 0.5 µg/ml
[10] = molecular target: Aβ1-42 peptide, monomer-enriched preparation; assay: ELISA assay 2, Ab 1:4 of 0.5 µg/ml
[11] = molecular target: Aβ1-42 peptide, oligomer-enriched preparation; assay: ELISA assay 1, Ab 1:1 of 0.5 µg/ml
[12] = molecular target: Aβ1-42 peptide, monomer-enriched preparation; assay: ELISA assay 1, Ab 1:1 of 0.5 µg/ml
[13] = molecular target: Aβ1-42 peptide, oligomer-enriched preparation; assay: ELISA assay 1, Ab 1:2 of 0.5 µg/ml
[14] = molecular target: Aβ1-42 peptide, monomer-enriched preparation; assay: ELISA assay 1, Ab 1:2 of 0.5 µg/ml
[15] = molecular target: Aβ1-42 peptide, oligomer-enriched preparation; assay: ELISA assay 3, Ab 1:32 of 0.5 µg/ml
[16] = molecular target: Aβ1-42 peptide, high molecular weight (HMW) proto-fibrillar (PF) oligomer enriched preparation (human); assay: ELISA, Ab 0.0313 µg/ml; proto-fibrils against LMW monomers (given without sign)
[17] = molecular target: Aβ1-42 peptide, oligomer-enriched preparation; assay: ELISA mean of 3, Ab 1:8 of 0.5 µg/ml
[18] = molecular target: Aβ1-42 peptide, oligomer-enriched preparation; assay: ELISA assay 2, Ab 1:2 of 0.5 µg/ml
[19] = molecular target: Aβ1-42 peptide, monomer-enriched preparation; assay: ELISA assay 2, Ab 1:2 of 0.5 µg/ml
[20] = molecular target: Aβ1-42 peptide, oligomer-enriched preparation; assay: ELISA assay 2, Ab 1:32 of 0.5 µg/ml
[21] = molecular target: Aβ1-42 peptide, monomer-enriched preparation; assay: ELISA assay 2, Ab 1:32 of 0.5 µg/ml
[22] = molecular target: Aβ1-42 peptide, oligomer-enriched preparation; assay: ELISA assay 2, Ab 1:8 of 0.5 µg/ml
[23] = molecular target: Aβ1-42 peptide, oligomer-enriched preparation; assay: ELISA mean of 3, Ab 1:16 of 0.5 µg/ml
[24] = molecular target: Aβ1-42 peptide, monomer-enriched preparation; assay: ELISA mean of 3, Ab 1:16 of 0.5 µg/ml
[25] = molecular target: Aβ1-42 peptide, high molecular weight (HMW) proto-fibrillar (PF) oligomer enriched preparation (human); assay: ELISA, Ab 0.5 µg/ml; proto-fibrils against LMW monomers (given without sign)
[26] = molecular target: Aβ1-42 peptide, high molecular weight (HMW) proto-fibrillar (PF) oligomer enriched preparation (human); assay: ELISA on coated fraction, Ab 1 µg/ml
[27] = molecular target: Aβ1-42 peptide, low molecular weight (LMW) monomer preparation (human); assay: ELISA on coated fraction, Ab 1 µg/ml
[28] = molecular target: Aβ1-42 peptide, high molecular weight (HMW) proto-fibrillar (PF) oligomer enriched preparation (human); assay: ELISA on coated fraction, Ab 0.5 µg/ml
[29] = molecular target: Aβ1-42 peptide, low molecular weight (LMW) monomer preparation (human); assay: ELISA on coated fraction, Ab 0.5 µg/ml
[30] = molecular target: Aβ1-42 peptide, oligomer-enriched preparation; assay: ELISA assay 3, Ab 1:16 of 0.5 µg/ml
[31] = molecular target: Aβ1-42 peptide, monomer-enriched preparation; assay: ELISA assay 3, Ab 1:16 of 0.5 µg/ml
[32] = molecular target: Aβ1-42 peptide, oligomer-enriched preparation; assay: ELISA assay 2, Ab 1:16 of 0.5 µg/ml
[33] = molecular target: Aβ1-42 peptide, monomer-enriched preparation; assay: ELISA assay 2, Ab 1:16 of 0.5 µg/ml
[34] = molecular target: Aβ1-42 peptide, oligomer-enriched preparation; assay: ELISA assay 2, Ab 1:1 of 0.5 µg/ml
[35] = molecular target: Aβ1-42 peptide, monomer-enriched preparation; assay: ELISA assay 2, Ab 1:1 of 0.5 µg/ml
[36] = molecular target: Aβ1-42 peptide, oligomer-enriched preparation; assay: ELISA assay 2, Ab 1:128 of 0.5 µg/ml
[37] = molecular target: Aβ1-42 peptide, monomer-enriched preparation; assay: ELISA assay 2, Ab 1:128 of 0.5 µg/ml
[38] = molecular target: Aβ1-42 peptide, high molecular weight (HMW) proto-fibrillar (PF) oligomer enriched preparation (human); assay: ELISA, Ab 0.0078 µg/ml; proto-fibrils against LMW monomers (given without sign)
[39] = molecular target: Aβ1-42 peptide, oligomer-enriched preparation; assay: ELISA assay 1, Ab 1:128 of 0.5 µg/ml
[40] = molecular target: Aβ1-42 peptide, monomer-enriched preparation; assay: ELISA assay 1, Ab 1:128 of 0.5 µg/ml
[41] = molecular target: Aβ1-42 peptide, oligomer-enriched preparation; assay: ELISA assay 3, Ab 1:8 of 0.5 µg/ml

Chain of Aβ1-42 peptide, oligomer-enriched preparation (peptide, as listed by the source, form in doubt): as above
Chain of Aβ1-42 peptide, monomer-enriched preparation (peptide, as listed by the source, form in doubt): as above

6E10 control antibody was tested. Which O.D. (mean) [1] did it give?
The O.D. (mean) was 0.63 O.D.

And the O.D. (mean) [2]?
The O.D. (mean) was 0.75 O.D.

And the O.D. [3]?
Its O.D. is 3.1 O.D.

And the O.D. difference [4]?
The O.D. difference was 0.13 O.D.

And the O.D. [5]?
The O.D. was 0.544 O.D.

And the O.D. [6]?
The O.D. was 0.574 O.D.

And the O.D. [7]?
The O.D. was 0.116 O.D.

And the O.D. [8]?
The O.D. was 0.133 O.D.

What about the O.D. [9] of the same substance?
Its O.D. is 3.37 O.D.

What about the O.D. [10] of the same substance?
The O.D. was 3.29 O.D.

And the O.D. [11]?
The O.D. was 3.36 O.D.

What about the O.D. [12] of the same substance?
The O.D. was 3.67 O.D.

What about the O.D. [13] of the same substance?
The O.D. was 3.39 O.D.

What about the O.D. [14] of the same substance?
The O.D. was 3.3 O.D.

And the O.D. [15]?
Its O.D. is 1.4 O.D.

What about the O.D. difference [16] of the same substance?
The O.D. difference was 0.04 O.D.

What about the O.D. (mean) [17] of the same substance?
Its O.D. (mean) is 2.98 O.D.

What about the O.D. [18] of the same substance?
Its O.D. is 3.55 O.D.

And the O.D. [19]?
The O.D. was 3.48 O.D.

What about the O.D. [20] of the same substance?
Its O.D. is 1.3 O.D.

What about the O.D. [21] of the same substance?
Its O.D. is 1.34 O.D.

And the O.D. [22]?
Its O.D. is 2.99 O.D.

What about the O.D. (mean) [23] of the same substance?
Its O.D. (mean) is 1.92 O.D.

What about the O.D. (mean) [24] of the same substance?
The O.D. (mean) was 1.98 O.D.

And the O.D. difference [25]?
Its O.D. difference is 0.13 O.D.

And the O.D. [26]?
The O.D. was 2.55 O.D.

And the O.D. [27]?
Its O.D. is 2.68 O.D.

What about the O.D. [28] of the same substance?
The O.D. was 2 O.D.

And the O.D. [29]?
The O.D. was 2.13 O.D.

And the O.D. [30]?
Its O.D. is 2.07 O.D.

What about the O.D. [31] of the same substance?
The O.D. was 2.23 O.D.

And the O.D. [32]?
The O.D. was 1.92 O.D.

And the O.D. [33]?
The O.D. was 1.94 O.D.

What about the O.D. [34] of the same substance?
The O.D. was 3.67 O.D.

And the O.D. [35]?
The O.D. was 3.77 O.D.

And the O.D. [36]?
The O.D. was 0.61 O.D.

What about the O.D. [37] of the same substance?
Its O.D. is 0.75 O.D.

And the O.D. difference [38]?
Its O.D. difference is 0.02 O.D.

And the O.D. [39]?
Its O.D. is 0.62 O.D.

And the O.D. [40]?
The O.D. was 0.64 O.D.

What about the O.D. [41] of the same substance?
The O.D. was 3.23 O.D.
